Measurements published in patent US20200317768A1 (published 2020).
Where a chain is given by its changes, count along the chain named. In names and notes the source's numbering stands.

T1: cynomolgus monkey FcγRIIa2 extracellular domain, C-terminal His-tag (cynomolgus monkey)
T1 construct: also called cyno FcγRIIa2; FcgRIIa2
T1 chain: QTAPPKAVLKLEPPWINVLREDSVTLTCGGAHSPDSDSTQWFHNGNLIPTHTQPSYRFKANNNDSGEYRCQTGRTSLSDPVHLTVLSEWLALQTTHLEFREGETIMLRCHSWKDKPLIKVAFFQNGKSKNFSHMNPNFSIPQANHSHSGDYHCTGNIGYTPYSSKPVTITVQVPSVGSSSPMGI

T2: cynomolgus monkey FcγRIIa1 extracellular domain, C-terminal His-tag (cynomolgus monkey)
T2 construct: also called cyno FcγRIIa1; FcgRIIa1
T2 chain: T1 chain with T95P, A121T, K127I, S128A, N130K, N135D, Q142R

T3: cynomolgus monkey FcγRIIa3 extracellular domain, C-terminal His-tag (cynomolgus monkey)
T3 construct: also called cyno FcγRIIa3; FcgRIIa3
T3 chain: T1 chain with K127I, N130K, H133P, Q142R

T4: cynomolgus monkey FcγRIIb extracellular domain, C-terminal His-tag (cynomolgus monkey)
T4 construct: also called cyno FcγRIIb; cynoFcγRIIb
T4 chain: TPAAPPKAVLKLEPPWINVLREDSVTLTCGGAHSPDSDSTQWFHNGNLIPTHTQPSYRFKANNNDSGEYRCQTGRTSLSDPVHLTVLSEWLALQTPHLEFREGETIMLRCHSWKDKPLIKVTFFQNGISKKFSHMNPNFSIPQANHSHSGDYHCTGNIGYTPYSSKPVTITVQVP

T5: cynomolgus monkey FcγRIIIaS extracellular domain, C-terminal His-tag (cynomolgus monkey, UniProt Q8SPW2 21-206 at identity 1.00))
T5 construct: also called cyno FcγRIIIaS; FcgRIIIaS
T5 chain: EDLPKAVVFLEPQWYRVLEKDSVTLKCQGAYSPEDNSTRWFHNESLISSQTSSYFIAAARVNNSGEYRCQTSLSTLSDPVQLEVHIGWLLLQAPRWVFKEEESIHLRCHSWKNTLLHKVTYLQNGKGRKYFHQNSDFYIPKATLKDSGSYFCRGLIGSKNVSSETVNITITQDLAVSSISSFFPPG

T6: cynomolgus monkey FcγRIIb extracellular domain, C-terminal His-tag (cynomolgus monkey)
T6 construct: also called cyno FcγRIIb; cynoFcγRIIb; not shown: His-tag added to C-terminus
T6 chain: T4 chain

T7: cynomolgus monkey FcγRIIa3 extracellular domain, C-terminal His-tag (cynomolgus monkey)
T7 construct: also called cyno FcγRIIa3; cynoFcgRIIa3; not shown: His-tag added to C-terminus
T7 chain: T1 chain with K127I, N130K, H133P, Q142R

T8: cynomolgus monkey FcγRIIa1 extracellular domain, C-terminal His-tag (cynomolgus monkey)
T8 construct: also called cyno FcγRIIa1; cynoFcgRIIa1; not shown: His-tag added to C-terminus
T8 chain: T1 chain with T95P, A121T, K127I, S128A, N130K, N135D, Q142R

T9: human FcγRIIaR extracellular domain, C-terminal His-tag (human, UniProt P12318 34-217)
T9 construct: also called human FcγRIIa (type R); FcgRIIaR; not shown: His-tag added to C-terminus
T9 chain: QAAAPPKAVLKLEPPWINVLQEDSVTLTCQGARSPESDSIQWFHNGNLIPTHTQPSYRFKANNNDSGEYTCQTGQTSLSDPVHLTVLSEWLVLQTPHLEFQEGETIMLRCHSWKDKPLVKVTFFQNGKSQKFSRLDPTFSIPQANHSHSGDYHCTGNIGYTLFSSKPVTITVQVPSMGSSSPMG

T10: human FcγRIIb extracellular domain, C-terminal His-tag (human, UniProt P31994 43-217)
T10 construct: also called humanFcgRIIb; not shown: His-tag added to C-terminus
T10 sequence: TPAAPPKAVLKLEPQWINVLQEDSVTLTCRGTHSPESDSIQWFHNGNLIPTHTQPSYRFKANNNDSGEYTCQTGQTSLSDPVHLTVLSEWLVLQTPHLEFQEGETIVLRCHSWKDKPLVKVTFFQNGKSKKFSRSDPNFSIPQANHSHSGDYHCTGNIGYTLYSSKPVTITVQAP

T11: human FcγRIIaH extracellular domain, C-terminal His-tag (human, UniProt P12318 34-217)
T11 construct: also called human FcγRIIa (type H); FcgRIIaH; not shown: His-tag added to C-terminus
T11 sequence: T9 chain with R134H

T12: cynomolgus monkey FcγRIIa2 extracellular domain, C-terminal His-tag (cynomolgus monkey)
T12 construct: also called cyno FcγRIIa2; cynoFcgRIIa2; not shown: His-tag added to C-terminus
T12 chain: T1 chain

B1: M103205H795-SG174/M103202L889-SK1 (antibody, human IgG1, kappa)
heavy: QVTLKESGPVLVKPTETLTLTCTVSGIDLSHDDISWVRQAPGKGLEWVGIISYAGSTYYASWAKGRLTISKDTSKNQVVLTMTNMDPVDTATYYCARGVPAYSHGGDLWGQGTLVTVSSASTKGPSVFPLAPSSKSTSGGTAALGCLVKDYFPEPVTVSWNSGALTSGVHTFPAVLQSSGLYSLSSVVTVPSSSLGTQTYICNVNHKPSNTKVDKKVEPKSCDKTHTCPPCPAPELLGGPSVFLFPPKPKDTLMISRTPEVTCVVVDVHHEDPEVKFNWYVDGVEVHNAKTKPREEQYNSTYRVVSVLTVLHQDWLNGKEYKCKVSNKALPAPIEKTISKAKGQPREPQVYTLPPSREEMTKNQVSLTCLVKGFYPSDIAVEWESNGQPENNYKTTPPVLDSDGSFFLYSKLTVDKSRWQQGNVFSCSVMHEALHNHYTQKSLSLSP
light: DIVMTQSPATLSLSPGERATLSCTSSQSVYHANWLSWFQQKPGQPPKLLIYWASTLAYGVPSRFSGSGSGTDFTLTISSLQPEDAATYYCAGGYGGGRYAFGQGTKVEIKRTVAAPSVFIFPPSDEQLKSGTASVVCLLNNFYPREAKVQWKVDNALQSGNSQESVTEQDSKDSTYSLSSTLTLSKADYEKHKVYACEVTHQGLSSPVTKSFNRGEC
notes: also called S267H
B2: M103205H795-SG179/M103202L889-SK1 (antibody, human IgG1, kappa)
heavy: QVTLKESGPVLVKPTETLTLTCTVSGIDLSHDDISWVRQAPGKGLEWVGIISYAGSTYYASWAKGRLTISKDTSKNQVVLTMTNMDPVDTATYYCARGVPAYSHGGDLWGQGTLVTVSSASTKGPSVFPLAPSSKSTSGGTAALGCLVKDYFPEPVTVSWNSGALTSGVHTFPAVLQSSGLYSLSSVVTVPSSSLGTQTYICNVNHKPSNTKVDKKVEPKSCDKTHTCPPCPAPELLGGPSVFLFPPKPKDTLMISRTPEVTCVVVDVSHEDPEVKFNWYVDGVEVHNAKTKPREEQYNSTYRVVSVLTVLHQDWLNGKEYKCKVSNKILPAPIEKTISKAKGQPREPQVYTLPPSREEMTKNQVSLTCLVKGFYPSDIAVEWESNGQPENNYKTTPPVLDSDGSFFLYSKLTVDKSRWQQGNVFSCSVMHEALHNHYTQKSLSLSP
light: B1 light
notes: also called A327I
B3: M103205H795-SG177/M103202L889-SK1 (antibody, human IgG1, kappa)
heavy: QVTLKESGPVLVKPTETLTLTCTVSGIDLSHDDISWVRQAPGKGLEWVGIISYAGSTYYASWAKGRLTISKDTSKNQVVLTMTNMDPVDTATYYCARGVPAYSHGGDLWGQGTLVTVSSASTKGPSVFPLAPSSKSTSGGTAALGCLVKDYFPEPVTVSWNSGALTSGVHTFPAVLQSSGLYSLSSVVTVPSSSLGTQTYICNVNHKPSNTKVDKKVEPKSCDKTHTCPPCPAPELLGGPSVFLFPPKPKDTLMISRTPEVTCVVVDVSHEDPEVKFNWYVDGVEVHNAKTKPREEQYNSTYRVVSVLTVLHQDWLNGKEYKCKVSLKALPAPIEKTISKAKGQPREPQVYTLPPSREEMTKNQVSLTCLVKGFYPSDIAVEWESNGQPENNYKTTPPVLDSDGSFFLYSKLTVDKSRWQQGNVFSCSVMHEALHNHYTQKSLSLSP
light: B1 light
notes: also called N325L
B4: M103205H795-SG176/M103202L889-SK1 (antibody, human IgG1, kappa)
heavy: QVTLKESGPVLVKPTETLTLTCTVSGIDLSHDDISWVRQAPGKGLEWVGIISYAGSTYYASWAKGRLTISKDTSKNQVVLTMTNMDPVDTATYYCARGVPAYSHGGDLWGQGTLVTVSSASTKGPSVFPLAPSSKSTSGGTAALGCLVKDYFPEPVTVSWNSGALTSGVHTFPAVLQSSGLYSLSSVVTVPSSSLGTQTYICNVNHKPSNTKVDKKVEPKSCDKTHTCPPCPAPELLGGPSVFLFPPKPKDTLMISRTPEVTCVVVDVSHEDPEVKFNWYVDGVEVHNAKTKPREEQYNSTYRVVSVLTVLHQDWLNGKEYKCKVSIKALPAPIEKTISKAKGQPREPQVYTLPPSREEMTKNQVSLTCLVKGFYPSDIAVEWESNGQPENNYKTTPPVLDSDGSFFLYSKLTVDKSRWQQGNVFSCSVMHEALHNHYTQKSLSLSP
light: B1 light
notes: also called N325I
B5: M103205H795-SG178/M103202L889-SK1 (antibody, human IgG1, kappa)
heavy: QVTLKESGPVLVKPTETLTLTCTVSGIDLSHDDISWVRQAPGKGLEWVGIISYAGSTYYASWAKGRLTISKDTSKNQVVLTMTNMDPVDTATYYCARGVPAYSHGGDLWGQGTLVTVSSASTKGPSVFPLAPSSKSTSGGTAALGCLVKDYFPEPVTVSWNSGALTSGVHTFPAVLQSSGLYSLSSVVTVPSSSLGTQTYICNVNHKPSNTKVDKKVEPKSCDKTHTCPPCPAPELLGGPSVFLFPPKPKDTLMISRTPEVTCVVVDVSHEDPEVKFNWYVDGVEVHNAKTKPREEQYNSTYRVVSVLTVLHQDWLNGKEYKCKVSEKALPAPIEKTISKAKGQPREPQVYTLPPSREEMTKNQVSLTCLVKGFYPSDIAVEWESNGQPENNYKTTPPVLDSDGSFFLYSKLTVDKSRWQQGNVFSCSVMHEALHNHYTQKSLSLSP
light: B1 light
notes: also called N325E
B6: M103205H795-MY533 / M103202L889-SK1 (antibody, human IgG1, kappa)
heavy: QVTLKESGPVLVKPTETLTLTCTVSGIDLSHDDISWVRQAPGKGLEWVGIISYAGSTYYASWAKGRLTISKDTSKNQVVLTMTNMDPVDTATYYCARGVPAYSHGGDLWGQGTLVTVSSASTKGPSVFPLAPSSKSTSGGTAALGCLVKDYFPEPVTVSWNSGALTSGVHTFPAVLQSSGLYSLSSVVTVPSSSLGTQTYICNVNHKPSNTKVDKKVEPKSCDKTHTCPPCPAPEWLTGPVVFLFPPKPKDTLMISRTPEVTCVVVDVSDEDPEVKFNWYVDGVEVHNAKTKPREELYNSTYRVVSVLTVLHQDWLNGKEYKCKVSNKALPKPIEKTISKAKGQPREPQVYTLPPSREEMTKNQVSLTCLVKGFYPSDIAVEWESNGQPENNYKTTPPVLDSDGSFFLYSKLTVDKSRWQQGNVFSCSVMHEALHNHYTQKSLSLSP
light: B1 light
B7: M103205H795-MY534 / M103202L889-SK1 (antibody, human IgG1, kappa)
heavy: B6 heavy with W236L
light: B1 light
B8: M103205H795-MY535 / M103202L889-SK1 (antibody, human IgG1, kappa)
heavy: B6 heavy with A233G, V241S, L297Q
light: B1 light

Molecular target: T1, cynomolgus monkey FcγRIIa2 …
Experiment: SPR; FcgR bound per captured antibody, normalized to SG1
Protocol: (§1) The kinetic analysis of interactions between these antibodies and FcγR was carried out using BIACORE® T200 or BIACORE® 4000 (GE Healthcare). HBS-EP+ (GE Healthcare) was used as the running buffer, and the measurement temperature was set to 25° C. A chip produced by immobilizing Protein A. Protein A/G or mouse anti-human IgG kappa light chain (BD Biosciences) onto a Series S Sensor Chip CM4 or CM5 (GE Healthcare) by the amine-coupling method was used. […] After the measurement, the antibody captured on the chip was washed off by allowing reaction with 10 mM glycine-HCl, pH1.5 and 25 mM NaOH so that the chip was regenerated and used repeatedly. The sensorgrams obtained as measurement results were analyzed by the 1:1 Langmuir binding model using the BIACORE® Evaluation Software to calculate the binding rate constant ka (L/mol/s) and dissociation rate constant kd (l/s), and the dissociation constant KD (mol/L) was calculated from these values. […] Regarding such interactions, KD values were calculated using the following 1:1 binding model described in BIACORE® T100 Software Handbook BR1006-48 Edition AE.
(§2) The value of the amount of FcγR binding was obtained by dividing the amount of FcγR bound by the amount of each antibody captured.

| amount of FcgR binding (SG1 = 100) | Binder |
| --- | --- |
| 16 SG1 = 100 | B1 |
| 17 SG1 = 100 | B2 |
| 15 SG1 = 100 | B3 |
| 15 SG1 = 100 | B4 |
| 21 SG1 = 100 | B5 |

Molecular target: T2, cynomolgus monkey FcγRIIa1 …
Experiment: as above
Protocol: as §1, §2

| amount of FcgR binding (SG1 = 100) | Binder |
| --- | --- |
| 13 SG1 = 100 | B1 |
| 19 SG1 = 100 | B2 |
| 15 SG1 = 100 | B3 |
| 14 SG1 = 100 | B4 |
| 22 SG1 = 100 | B5 |

Molecular target: T3, cynomolgus monkey FcγRIIa3 …
Experiment: as above
Protocol: as §1, §2

| amount of FcgR binding (SG1 = 100) | Binder |
| --- | --- |
| 20 SG1 = 100 | B1 |
| 28 SG1 = 100 | B2 |
| 25 SG1 = 100 | B3 |
| 19 SG1 = 100 | B4 |
| 29 SG1 = 100 | B5 |

Molecular target: T4, cynomolgus monkey FcγRIIb extracellular …
Experiment: as above
Protocol: as §1, §2

| amount of FcgR binding (SG1 = 100) | Binder |
| --- | --- |
| 11 SG1 = 100 | B1 |
| 19 SG1 = 100 | B2 |
| 18 SG1 = 100 | B3 |
| 16 SG1 = 100 | B4 |
| 26 SG1 = 100 | B5 |

Molecular target: T5, cynomolgus monkey FcγRIIIaS …
Experiment: as above
Protocol: as §1, §2

| amount of FcgR binding (SG1 = 100) | Binder |
| --- | --- |
| 15 SG1 = 100 | B1 |
| 48 SG1 = 100 | B2 |
| 21 SG1 = 100 | B3 |
| 20 SG1 = 100 | B4 |
| 36 SG1 = 100 | B5 |

Each binder was assayed against T13, cynomolgus monkey FcγRIIIaS extracellular domain, C-terminal His-tag (cynomolgus monkey, UniProt A3RFZ7 21-206 (rhesus entry)) (assay: SPR (BIACORE); KD of SG1 / KD of variant;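 further: relative to parent M103205H795-SG1 carrying the SG1 human heavy chain constant region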).
T13 construct: also called cyno FcγRIIIaS; cynoFcγRIIIaS; not shown: His-tag added to C-terminus
Protocol: as §1
(§3) The behavior of interacting molecules according to the 1:1 binding model on BIACORE® can be described by Equation 1: Req=C·R max/(KD+C)+RI, wherein, Req is a plot of steady-state binding levels to analyte concentration. C is concentration, RI is bulk refractive index contribution in the sample, and Rmax is analyte binding capacity of the surface. When this equation is rearranged, KD can be expressed as Equation 2: KD=C·Rmax/(Req−RI)−C. KD can be calculated by substituting the values of Rmax, RI, and C into Equation 1 or Equation 2. From the current measurement conditions, RI=0, C=2 μmol/L can be used.

| KD fold (SG1 = 1) | Binder |
| --- | --- |
| 0.33 fold | B6 |
| 0.22 fold | B7 |
| 0.17 fold | B8 |

Molecular target: T6, cynomolgus monkey FcγRIIb extracellular …
Experiment: SPR (BIACORE); KD of SG1 / KD of variant;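 further: relative to parent M103205H795-SG1 carrying the SG1 human heavy chain constant region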
Protocol: as §1, §3

| KD fold (SG1 = 1) | Binder |
| --- | --- |
| 7.2 fold | B6 |
| 4.3 fold | B7 |
| 4.4 fold | B8 |

Molecular target: T7, cynomolgus monkey FcγRIIa3 …
Experiment: SPR (BIACORE); KD of SG1 / KD of variant;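 further: relative to parent M103205H795-SG1 carrying the SG1 human heavy chain constant region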
Protocol: as §1, §3

| KD fold (SG1 = 1) | Binder |
| --- | --- |
| 14.2 fold | B6 |
| 14.2 fold | B7 |
| 5.7 fold | B8 |

Molecular target: T8, cynomolgus monkey FcγRIIa1 …
Experiment: SPR (BIACORE); KD of SG1 / KD of variant;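 further: relative to parent M103205H795-SG1 carrying the SG1 human heavy chain constant region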
Protocol: as §1, §3

| KD fold (SG1 = 1) | Binder |
| --- | --- |
| 4 fold | B6 |
| 2.5 fold | B7 |
| 2.1 fold | B8 |

Molecular target: T9, human FcγRIIaR extracellular domain, …
Experiment: SPR (BIACORE); KD of SG1 / KD of variant
Protocol: as §1, §3

| KD fold (SG1 = 1) | Binder |
| --- | --- |
| 5.5 fold | B6 |
| 3.8 fold | B7 |
| 1.7 fold | B8 |

What follows are binders tested against T10, human FcγRIIb extracellular domain, … (assay: SPR (BIACORE); KD of SG1 / KD of variant).
Protocol: as §1, §3

| KD fold (SG1 = 1) | Binder |
| --- | --- |
| 4.5 fold | B6 |
| 3.8 fold | B7 |
| 2.4 fold | B8 |

What follows are binders tested against T14, human FcγRIIIaV extracellular domain, C-terminal His-tag (human, UniProt P08637 17-208) (assay: SPR (BIACORE); KD of SG1 / KD of variant).
T14 construct: also called FcgRIIIaV; not shown: His-tag added to C-terminus
Protocol: as §1, §3

T14 sequence (P08637 17-208 F176V): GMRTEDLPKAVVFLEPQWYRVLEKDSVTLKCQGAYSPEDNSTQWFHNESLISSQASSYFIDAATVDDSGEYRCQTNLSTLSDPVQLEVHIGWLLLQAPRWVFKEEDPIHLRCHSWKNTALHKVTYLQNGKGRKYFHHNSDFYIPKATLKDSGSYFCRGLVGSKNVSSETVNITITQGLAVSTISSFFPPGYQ

| KD fold (SG1 = 1) | Binder |
| --- | --- |
| 0.45 fold | B6 |
| 0.19 fold | B7 |
| 0.16 fold | B8 |

These binders were tested against T11, human FcγRIIaH extracellular domain, … (assay: SPR (BIACORE); KD of SG1 / KD of variant).
Protocol: as §1, §3

| KD fold (SG1 = 1) | Binder |
| --- | --- |
| 3.3 fold | B6 |
| 4.1 fold | B7 |
| 1.5 fold | B8 |

Molecular target: T12, cynomolgus monkey FcγRIIa2 …
Experiment: SPR (BIACORE); KD of SG1 / KD of variant
Protocol: as §1, §3

| KD fold (SG1 = 1) | Binder |
| --- | --- |
| 7 fold | B6 |
| 3.9 fold | B7 |
| 3.6 fold | B8 |
